The source of these data is publication doi:10.1101/2022.01.14.476386 (bioRxiv, 2022).

Assay [1] addresses T1, eukaryotic initiation factor 4E (eIF4E) (UniProt P06730 1-217). Description: fluorescence correlation spectroscopy.
For assay [2], the target named is T1, eukaryotic initiation factor 4E (eIF4E). Description: fluorescence anisotropy decay. In general terms: Polarisation of emitted light reports the rotation of a fluorescent probe.

T1 sequence (P06730 whole entry): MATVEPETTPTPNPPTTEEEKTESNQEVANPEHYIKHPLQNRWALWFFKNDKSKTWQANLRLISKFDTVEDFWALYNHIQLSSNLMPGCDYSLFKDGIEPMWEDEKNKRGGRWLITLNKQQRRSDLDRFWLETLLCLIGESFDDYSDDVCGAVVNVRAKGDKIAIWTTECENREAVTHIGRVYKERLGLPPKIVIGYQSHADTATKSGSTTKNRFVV

B1: 4E-BP2 C91 (C35S/C73S/S91C), non-phosphorylated, labelled with Atto488 at position 91 (natural protein, UniProt Q13542 1-120, looked up)
chain: MSSSAGSGHQPSQSRAIPTRTVAISDAAQLPHDYSTTPGGTLFSTTPGGTRIIYDRKFLLDRRNSPMAQTPPSHLPNIPGVTSPGTLIEDCKVEVNNLNNLNNHDRKHAVGDDAQFEMDI
modifications: Atto488 maleimide on cysteine 91
Regarding B1, in assay [1], the binding result is reported as “binds”.

B2: 4E-BP2 C14 (S14C/C35S/C73S), non-phosphorylated, labelled with Atto488 at position 14 (natural protein, UniProt Q13542 1-120, looked up)
chain: MSSSAGSGHQPSQCRAIPTRTVAISDAAQLPHDYSTTPGGTLFSTTPGGTRIIYDRKFLLDRRNSPMAQTPPSHLPNIPGVTSPGTLIEDSKVEVNNLNNLNNHDRKHAVGDDAQFEMDI
modifications: Atto488 maleimide on cysteine 14
Regarding B2, the binding result in assay [2] was “binds”.

B3: 4E-BP2 C73 (C35S), non-phosphorylated, labelled with Atto488 at position 73 (natural protein, UniProt Q13542 1-120, looked up)
chain: MSSSAGSGHQPSQSRAIPTRTVAISDAAQLPHDYSTTPGGTLFSTTPGGTRIIYDRKFLLDRRNSPMAQTPPCHLPNIPGVTSPGTLIEDSKVEVNNLNNLNNHDRKHAVGDDAQFEMDI
modifications: Atto488 maleimide on cysteine 73
Consider B3, for which the binding result in assay [1] is recorded as “binds”.

B4: 4E-BP2 C35 (C73S), non-phosphorylated, labelled with Atto488 at position 35 (natural protein, UniProt Q13542 1-120, looked up)
chain: MSSSAGSGHQPSQSRAIPTRTVAISDAAQLPHDYCTTPGGTLFSTTPGGTRIIYDRKFLLDRRNSPMAQTPPSHLPNIPGVTSPGTLIEDSKVEVNNLNNLNNHDRKHAVGDDAQFEMDI
modifications: Atto488 maleimide on cysteine 35
Take B4: the binding result in assay [2] is reported as “binds”.

B5: 4E-BP2 C121 (C35S/C73S/C121ins), non-phosphorylated, labelled with Atto488 at position 121 (natural protein, UniProt Q13542 1-120, looked up)
chain: MSSSAGSGHQPSQSRAIPTRTVAISDAAQLPHDYSTTPGGTLFSTTPGGTRIIYDRKFLLDRRNSPMAQTPPSHLPNIPGVTSPGTLIEDSKVEVNNLNNLNNHDRKHAVGDDAQFEMDIC
modifications: Atto488 maleimide on the inserted cysteine at position 121
In the case of B5, in assay [1], the binding result is recorded as “binds”.
